B1: His-tagged FtsZ (filamentous temperature-sensitive protein Z) (natural protein, Streptococcus suis, UniProt A0A0H3MXZ7 1-409, looked up)
chain: MAFSFEAAASHGAVIKVIGVGGGGGNAINRMIEEGVAGVEFIAANTDVQALSSSKAETVIQLGPKLTRGLGAGGQPEVGRKAAEESEEALTNVLTGADMVFITAGMGGGSGTGAAPVIARIAKNLGALTVAVVTRPFGFEGNKRGNFAIEGIEGLREQVDTLLIISNNNLLEIVDKKTPLLEALSEADNVLRQGVQGITDLITNPGLINLDFADVKTVMENKGNALMGIGIGTGEDRVIEAARKAIYSPLLETTIDGAEDVIVNVTGGYDMTLTEAEDASEIVNQAAGQGVNIWLGTSIDETMKDEIRVTVVATGVRQDTADKPARHRTEAVSPRPSHRFDHSVASAPTRGAAQQTEAPKASAFGEWDLRRENLIRPTDTEPTSTVSVEKFTMDQDEDELDTPPFFRNR
notes: FtsZ, tubulin-like cell division protein of Streptococcus suis; The His tag is named for the SPR; also called His-FtsZ; source: purified
B2: N_MsmK (amino acids 1 to 234), His-tagged (domain or fragment, Streptococcus suis, UniProt A0A0H3N1P0 1-234, looked up)
chain: MVQLNLKNIYKKYPNSEHYSVEDFNLDIKDKEFIVFVGPSGCGKSTTLRMIAGLEDITEGEAYIDGVLMNDVAPKDRDIAMVFQNYALYPHMTVFDNMAFGLKLRKYSKDEIKKRVEEAAQILGLTEFLERKPADLSGGQRQRVAMGRAIVRDAKVFLMDEPLSNLDAKLRVSMRTEIAKIHRRIGATTIYVTHDQTEAMTLADRIVIMSATKNPAGTGTIGRIEQIGSPEELY
notes: MsmK of Streptococcus suis, N-terminal domain, aa 1 to 234 of 378; also called N terminus of MsmK; N-terminal domain of MsmK; source: expressed and purified
B3: His-tagged MsmK (multiple sugar metabolism protein K), full length (enzyme, Streptococcus suis, UniProt A0A0H3N1P0 1-376, looked up)
chain: MVQLNLKNIYKKYPNSEHYSVEDFNLDIKDKEFIVFVGPSGCGKSTTLRMIAGLEDITEGEAYIDGVLMNDVAPKDRDIAMVFQNYALYPHMTVFDNMAFGLKLRKYSKDEIKKRVEEAAQILGLTEFLERKPADLSGGQRQRVAMGRAIVRDAKVFLMDEPLSNLDAKLRVSMRTEIAKIHRRIGATTIYVTHDQTEAMTLADRIVIMSATKNPAGTGTIGRIEQIGSPEELYNRPVNKFVASFIGSPAMNFFTVTLQDGVLVGDGFKVELPEGRRKHLEEKGYNGKSFTLGIRPEDIKASQLELDTYPSSIVEAEVVVSELLGAETMLYSKVGSTEFVSRVDARDYHNPGDKVRLTFNLNKAHFFDDETSKAIV
notes: MsmK, ATPase of the ABC-type carbohydrate transport system of Streptococcus suis; 378 amino acid residues, open reading frame of 1,137 bp; also called full-length MsmK; source: expressed and purified

Key:
[1] = biological target: the molecule itself; test: transmission electron microscopy; FtsZ (0.6 μM) incubated with 2 mM GTP and/or 1 mM ATP in buffer P, 10 min at 37°C
[2] = biological target: B1; test: SPR; His-tagged FtsZ immobilized onto sensor chips as the ligand; MsmK constructs in concentration series as analytes; buffer without protein as negative control; settings: both partners purified

| Binder | binding result [1] | Kd [2] [nM] | koff [2] [s⁻¹] | kon [2] [M⁻¹ s⁻¹] |
| --- | --- | --- | --- | --- |
| B1 | binds | – | – | – |
| B2 | – | 332 | 0.000332 | 1000 |
| B3 | – | ≤ 10 | ≤ 1e-05 | 1000 |

— publication PMC8546688, “Streptococcus suis MsmK: Novel Cell Division Protein Interacting with FtsZ and Maintaining Cell Shape” (mSphere, 2021)
